Tests used:
human IL-17 [1] = target: T1, human IL-17 (human, UniProt Q16552 24-155); assay: KINEXA 3000, solution equilibrium, free antibody captured on human IL-17a beads
T1 construct: also called hIL-17; IL-17A

human IL-17 [2] = target: T1, human IL-17; assay: SPR (BIACORE A100), IgG from transfection supernatant captured by anti-human Fc on CM5 chip, human IL-17 flowed over; 1:1 model with mass transport
human IL-17 [3] = target: T1, human IL-17; assay: Average KINEXA values
[4] = target: T2, IL-17 antigen (APE349) linked to wasabi fluorescent protein (WFP) (labeled with Eu3+-TBP-NHS Cryptate); assay: HTRF competition against the labelled second reference antibody
T2 construct: also called labeled antigen

[5] = target: T3, human Myc-IL-17a (APE280) (human, UniProt Q16552 24-155, limits assumed); assay: competition ELISA: plate coated with myc-IL-17a (APE280), antibody titrated against biotinylated IL-17RA (sheet: 2.1 nM, overnight incubation), bound IL-17RA detected with avidin-HRP, OD450 as % of no antibody
T3 construct: not shown: Myc tag

human IL-17 [6] = target: T1, human IL-17; assay: cell-based or functional assay
[7] = target: T3, human Myc-IL-17a (APE280); assay: cell-based or functional assay
[8] = target: T3, human Myc-IL-17a (APE280); assay: competition ELISA, plate-coated myc-IL-17a, biotinylated IL-17RA as competitor, IC50 comparison

B1: APE265-817/773 (antibody, V domains shown)
VH: EVQLVESGGGLVQPGGSLRLSCAASGFTFSNHWMNWVRQAPGKGLEWVAAINEDGSEKYYVGSVKGRFTISRDNAKNSLYLQMNSLRVEDTAVYYCARDYYDILTDYYIHYWYFDLWGRGTLVTVSS
VL: not shown
notes: also called Well 11
Question: For B1, which Kd (human IL-17 [1]) is on record?
Answer: 322 pM

Question: What about the Kd (human IL-17 [2]) of the same binder?
Answer: < 1000 pM

B2: APE422-1141/773 (antibody, V domains shown)
VH: EVQLVESGGGLVQPGGSLRLSCAASGFTFSNHWMNWVRQTPGKGLEWVAAINEDGSEKYYVGSVKVRFTISRDNAKNSLYLQMNSLRVEDTAVYYCARDYYDILTDYYIHYWYFDLWGRGTLVTVSS
VL: not shown
notes: Human IgG (detected with anti-human IgG)
Question: With B2 as the binder, how does the koff (human IL-17 [3]) read?
Answer: 2.4e-05 s⁻¹

Question: What about the kon (human IL-17 [3]) of the same binder?
Answer: 360000 M⁻¹ s⁻¹

Question: And the Kd (human IL-17 [1])?
Answer: 67 pM

B3: APE508-1266/773 (antibody, V domains shown)
VH: EVQLVESGGGLVQPGGSLRLSCAASGFTFSNHWMNWVRQTPGKGLEWVAAINEDGSEKYYVGSVKVRFTISRDNAKNSLYLQMNSLRVEDTAVYYCVRDYYDILTDYYIHYWYFDLWGRGTLVTVSS
VL: not shown
notes: as for B2
Question: Which koff (human IL-17 [3]) does the source give for B3 here?
Answer: 1.8e-05 s⁻¹

Question: And the kon (human IL-17 [3])?
Answer: 418000 M⁻¹ s⁻¹

Question: Does B3 bind [4]?
Answer: binds

Question: What about the Kd (human IL-17 [1]) of the same binder?
Answer: 43 pM

Question: What about the IC50 [5] of the same binder?
Answer: 1600 pM

B4: antibody with heavy chain SEQ ID NO: 30 and light chain SEQ ID NO: 25 (antibody, V domains shown)
VH: EVQLVESGGGLVQPGGSLRLSCAASGFTFSNYWMNWVRQAPGKGLEWVAAINQDGSEKYYVGSVKGRFTISRDNAKNSLYLQMNSLRVEDTAVYYCVRDYYDILTDYYIHYWYFDLWGRGTLVTVSS
VL: not shown
notes: IgG captured by anti-human Fc; also called Well 15
Question: Which Kd (human IL-17 [2]) does the source give for B4 here?
Answer: < 1000 pM

B5: antibody with heavy chain SEQ ID NO: 6 and light chain SEQ ID NO: 27 (antibody, V domains shown)
VH: EVQLVESGGGLVQPGGSLRLSCAASGFTFSSYWMSWVRQAPGKGLEWVASIKQDGSEKYYVDSVKGRFTISRDNAKNSLYLQMNSLRAEDTAVYYCARDYYDILTDYYIHYWYFDLWGRGTLVTVSS
VL: not shown
notes: IgG captured by anti-human Fc; also called Well 20
Question: With B5 as the binder, how does the Kd (human IL-17 [2]) read?
Answer: > 10000 pM

B6: APE321-844/773 (antibody, V domains shown)
VH: EVQLVESGGGLVQPGGSLRLSCAASGFTFSSYWMSWVRQAPGKGLEWVASIKQDGSEKYYVDSVKGRFTISRDNAKNSLYLQMNSLRAEDTAVYYCARDYYDILTDYYIHYWYFDLWGRGTLVTVSS
VL: not shown
notes: Human IgG; also called Well 12
Question: How did the Kd (human IL-17 [1]) turn out when B6 was run?
Answer: 9400 pM

Question: What about the Kd (human IL-17 [2]) of the same binder?
Answer: < 1000 pM

B7: APE755-1574/773 (antibody, V domains shown)
VH: EVQLVESGGGLVQPGGSLRLSCAASGFTFSNHWMNWVRQTPGKGLEWVAAINEDGSEKYYVGSVKVRFTISRDNAKNSLYLQMNSLRVEDTAVYYCARDYYDILTRDYYDILTDYYIHYWYFDLWGRGTLVTVSS
VL: not shown
notes: as for B2
Question: How did the “IL-6 and IL-8 release from IL-17-stimulated primary human RA synovial fibroblasts, potency against the reference anti-IL-17a antibodies” value (human IL-17 [6]) turn out when B7 was run?
Answer: 5 fold

Question: What about the “IL-8 release from human IL-17-stimulated cell lines, potency against the first reference anti-IL17a antibody” value [7] of the same binder?
Answer: 2 fold

Question: What about the koff (human IL-17 [3]) of the same binder?
Answer: 5.9e-06 s⁻¹

Question: And the kon (human IL-17 [3])?
Answer: 1.2e+06 M⁻¹ s⁻¹

Question: What about the Kd (human IL-17 [1]) of the same binder?
Answer: 4.9 pM

Question: What about the “fold potency in blocking IL-17/IL-17RA interaction against the first reference anti-IL-17a antibody” value [8] of the same binder?
Answer: 40 fold

Question: And the IC50 [5]?
Answer: 340 pM

Reference: US20130202591A1 (ANAPTYSBIO, published 2013)
